{"source": "paper PMC11266426", "about": "“Membrane remodeling by FAM92A1 during brain development regulates neuronal morphology, synaptic function, and cognition” (Nature Communications, 2024)", "proteins": {"B1": {"name": "Human FAM92A1 BAR domain (residues 1-219), wild type (domain or fragment, UniProt A1XBS5 1-219, looked up)", "chain": "MMRRTLENRNAQTKQLQTAVSNVEKHFGELCQIFAAYVRKTARLRDKADLLVNEINAYAATETPHLKLGLMNFADEFAKLQDYRQAEVERLEAKVVEPLKTYGTIVKMKRDDLKATLTARNREAKQLTQLERTRQRNPSDRHVISQAETELQRAAMDASRTSRHLEETINNFERQKMKDIKTIFSEFITIEMLFHGKALEVYTAAYQNIQNIDEDEDLE", "notes": "FAM92A1 (CIBAR1), human, residues 1-219 cloned into the pHAT vector between SpeI and NsiI; residues 2-211 form the BAR domain in the crystal structure; Homodimer by crystal structure and SEC-MALS; The pHAT vector probably adds the His tag at the N-terminus (surmise); also called FAM92A1 N-terminal region; WT; source: E. coli BL21 (DE3), purified (Ni-NTA, gel filtration on Superdex 75)"}}, "target": "the molecule itself", "assay": "SEC-MALS; purified proteins on a Superdex 200 10/300 column at 4 °C, flow 0.5 mL/min; MiniDAWN light scattering and Optilab dRI detectors"}
{"protein": "B1", "values": [{"measurement": "stoichiometry N", "result": 2}]}
